Experimental data: article doi:10.1101/2024.01.24.577129, “IgG hexamers initiate acute lung injury” (bioRxiv, 2024)

T1: K^d MHC class I monomer presenting VYLKTNVFL (Mus musculus, H-2d haplotype (K^d), UniProt P01902;P01887)
T1 chain 1: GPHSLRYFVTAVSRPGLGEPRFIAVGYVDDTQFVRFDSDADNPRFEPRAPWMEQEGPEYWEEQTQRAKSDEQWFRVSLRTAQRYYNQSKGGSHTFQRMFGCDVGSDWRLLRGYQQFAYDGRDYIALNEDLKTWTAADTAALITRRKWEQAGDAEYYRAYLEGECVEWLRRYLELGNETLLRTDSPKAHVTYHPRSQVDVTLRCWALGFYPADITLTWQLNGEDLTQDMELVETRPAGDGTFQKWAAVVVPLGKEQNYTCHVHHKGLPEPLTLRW
T1 chain 2: not shown
T1 chain 3: VYLKTNVFL

B1: Kd1 (antibody, V domains shown)
VH: EVLLVESGGDLVKPGGSLKLSCAASGFTFRTYAMSWVRQTPEKRLEWVATIGDDGSYTFYPDNVKGRFTISRDNAKNNLYLQMRHLKSEDTAIYFCARDGLFAYWGQGTLVTVSA
VL: DIQMTQSPSSLSASLGGKVTITCKASQDIKKNIAWYQYKPGKGPRLLIHYTSTLQPGISSRFSGSGSGRDYSFSISNLEPEDIATYYCLQYDSLLYTFGGGTKLEIK
B2: 34-1-2S antibody (antibody, V domains shown)
VH: EVQLQQSGAEFVRPGASVKLSCTASGFNLKDDYMFWVKQRPEQGLEWIGWIAPDNGDTEYASKFQGKATITADTSSNTAYVQLSSLTSEDTAVYYCTTWGYYSYVNYWGQGTTLTVSS
VL: DIQMTQSPSSLSASLGERVSLTCRASQDIGSNLNWLQQEPDGTIKRLIYATYSLDSGVPKRFSGSRSGSDYSLTISSLESEDFVDYYCLQYASSPYTFGGGTKLEIK
notes: heavy chain variable region of 34-1-2S; mouse IgG2a heavy chain constant region; the class follows from the mIgG2a isotype control and the mIgG2a model; light chain variable region of 34-1-2S; light chain constant region of the mouse antibody; Mouse IgG2a monoclonal antibody; also called clone 34-1-2S; MHC class I alloantibody 34-1-2S; source: bought: BioXCell Cat# BE0180 (stated for the injury …)

Assays:
[1] = molecular target: T1, K^d MHC class I monomer presenting …
[2] = molecular target: T2, K^b MHC class I monomer presenting SIINFEKL (Mus musculus, H-2b haplotype (K^b), UniProt P01901;P01887); assay: SPR; monoclonal antibody bound via amine coupling to SensEye G Easy2Spot sensors; serial dilutions (0.5-200 nM) of MHC class I monomers injected; triplicate; IBIS MX96 SPR imager; details: both partners purified
T2 construct: Commercial MHC class I monomer; also called H-2K^b; MBL International TB-5001-M; copies: + +

[3] = molecular target: T3, D^b MHC class I monomer presenting … (Mus musculus, H-2b haplotype (D^b), UniProt P01899;P01887); assay: as above; details: both partners purified
T3 construct: Commercial MHC class I monomer; also called H-2D^b; MBL International TB-5008-M; copies: + +

| Binder | binding result [1] | binding result [2] | binding result [3] |
| --- | --- | --- | --- |
| B1 | binds |  |  |
| B2 |  | binds | no binding (tested: 0.5-200 nM) |
